From patent US20240392004A1
One block for each substance: values may come before it.

Experiments:
Assay in all cases: cell-based or functional assay
[1] = target: T1, IFN-γ receptor (IFNGR1 and IFNGR2) (UniProt P15260)
T1 sequence (looked up) 1: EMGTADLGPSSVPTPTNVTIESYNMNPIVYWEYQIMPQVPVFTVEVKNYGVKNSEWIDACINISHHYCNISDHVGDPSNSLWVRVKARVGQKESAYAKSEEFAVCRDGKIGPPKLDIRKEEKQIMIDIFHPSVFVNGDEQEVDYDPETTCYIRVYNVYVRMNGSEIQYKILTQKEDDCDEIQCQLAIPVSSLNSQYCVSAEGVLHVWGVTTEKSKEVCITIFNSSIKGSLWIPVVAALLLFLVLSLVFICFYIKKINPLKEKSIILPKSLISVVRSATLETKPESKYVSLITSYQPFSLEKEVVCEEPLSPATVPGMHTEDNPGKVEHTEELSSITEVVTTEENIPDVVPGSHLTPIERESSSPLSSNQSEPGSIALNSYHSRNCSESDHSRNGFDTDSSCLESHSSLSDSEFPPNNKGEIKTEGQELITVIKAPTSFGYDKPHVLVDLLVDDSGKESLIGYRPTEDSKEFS
T1 sequence (looked up) 2: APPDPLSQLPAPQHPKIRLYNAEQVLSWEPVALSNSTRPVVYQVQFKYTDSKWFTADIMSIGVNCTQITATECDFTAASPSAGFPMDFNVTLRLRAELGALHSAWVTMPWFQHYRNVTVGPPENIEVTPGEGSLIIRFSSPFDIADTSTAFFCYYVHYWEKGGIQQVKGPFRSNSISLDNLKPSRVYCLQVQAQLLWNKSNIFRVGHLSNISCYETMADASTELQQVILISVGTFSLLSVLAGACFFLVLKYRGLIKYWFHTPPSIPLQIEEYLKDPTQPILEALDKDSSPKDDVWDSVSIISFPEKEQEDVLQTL

[2] = target: IL-10 receptor (hIL-10Rα and hIL-10Rβ) (human) (UniProt Q13651)
[3] = target: human IL-12 receptor complex (IL-12Rβ1 and IL-12Rβ2) (human) (UniProt P42701)
[4] = target: IL-23 receptor complex (IL-12Rβ1 and IL-23R) (UniProt P42701)
IL-23 receptor complex (IL-12Rβ1 and IL-23R), sequence (Q5VWK5 24-629 limits assumed, chain 2 of 2, other chains not shown): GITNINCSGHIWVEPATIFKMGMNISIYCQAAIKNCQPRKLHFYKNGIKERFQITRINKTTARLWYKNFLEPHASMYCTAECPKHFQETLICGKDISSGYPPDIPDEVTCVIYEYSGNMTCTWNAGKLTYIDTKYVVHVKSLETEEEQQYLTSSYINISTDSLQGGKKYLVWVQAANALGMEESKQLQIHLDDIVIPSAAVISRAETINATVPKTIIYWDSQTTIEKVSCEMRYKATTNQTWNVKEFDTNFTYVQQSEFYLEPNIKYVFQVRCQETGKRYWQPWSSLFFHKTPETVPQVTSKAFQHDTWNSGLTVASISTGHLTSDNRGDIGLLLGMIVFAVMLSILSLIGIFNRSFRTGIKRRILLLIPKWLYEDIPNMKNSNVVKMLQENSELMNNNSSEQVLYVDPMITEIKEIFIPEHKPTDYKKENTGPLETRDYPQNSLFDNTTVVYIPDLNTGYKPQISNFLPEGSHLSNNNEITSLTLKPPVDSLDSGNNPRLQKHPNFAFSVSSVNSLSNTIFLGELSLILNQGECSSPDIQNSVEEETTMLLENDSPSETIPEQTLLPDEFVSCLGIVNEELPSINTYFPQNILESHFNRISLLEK

human IL-12 receptor complex (IL-12Rβ1 and IL-12Rβ2) (human), sequence (Q99665 24-862, chain 2 of 2, other chains not shown): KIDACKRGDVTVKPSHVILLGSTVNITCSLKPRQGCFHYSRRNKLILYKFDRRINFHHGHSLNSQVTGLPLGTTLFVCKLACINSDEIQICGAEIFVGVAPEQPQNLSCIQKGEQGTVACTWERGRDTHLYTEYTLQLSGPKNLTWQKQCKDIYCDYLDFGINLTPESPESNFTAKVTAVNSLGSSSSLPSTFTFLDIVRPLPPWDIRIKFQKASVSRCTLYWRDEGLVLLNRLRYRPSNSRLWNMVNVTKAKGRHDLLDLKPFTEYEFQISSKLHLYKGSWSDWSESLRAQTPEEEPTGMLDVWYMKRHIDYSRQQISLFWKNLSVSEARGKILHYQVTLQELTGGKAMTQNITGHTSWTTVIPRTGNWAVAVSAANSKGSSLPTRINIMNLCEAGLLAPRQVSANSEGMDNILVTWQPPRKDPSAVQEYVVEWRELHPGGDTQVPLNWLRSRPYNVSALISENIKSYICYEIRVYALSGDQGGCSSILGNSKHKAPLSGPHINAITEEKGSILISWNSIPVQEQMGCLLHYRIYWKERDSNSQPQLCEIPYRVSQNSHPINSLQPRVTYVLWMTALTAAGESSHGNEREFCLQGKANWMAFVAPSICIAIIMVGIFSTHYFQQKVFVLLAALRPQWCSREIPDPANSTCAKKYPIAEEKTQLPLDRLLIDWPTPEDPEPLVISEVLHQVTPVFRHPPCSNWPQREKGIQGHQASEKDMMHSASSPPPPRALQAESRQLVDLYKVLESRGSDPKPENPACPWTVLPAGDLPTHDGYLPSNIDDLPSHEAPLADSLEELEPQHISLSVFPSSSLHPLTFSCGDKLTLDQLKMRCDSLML
recombinant human IFN-γ (free state), sequence (P01579 24-166 limits assumed): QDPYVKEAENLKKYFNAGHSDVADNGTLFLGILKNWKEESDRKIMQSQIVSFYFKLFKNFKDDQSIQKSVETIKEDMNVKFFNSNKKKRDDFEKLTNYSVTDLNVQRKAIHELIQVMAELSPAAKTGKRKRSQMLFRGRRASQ
recombinant human IL-12, sequence (P29459 23-219 limits assumed): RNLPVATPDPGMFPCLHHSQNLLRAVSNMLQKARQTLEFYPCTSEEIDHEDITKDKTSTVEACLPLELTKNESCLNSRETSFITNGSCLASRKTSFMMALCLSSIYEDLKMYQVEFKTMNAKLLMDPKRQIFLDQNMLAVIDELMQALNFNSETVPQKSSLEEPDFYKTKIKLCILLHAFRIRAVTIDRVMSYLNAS
recombinant human IL-12, sequence (P29460 23-328 limits assumed): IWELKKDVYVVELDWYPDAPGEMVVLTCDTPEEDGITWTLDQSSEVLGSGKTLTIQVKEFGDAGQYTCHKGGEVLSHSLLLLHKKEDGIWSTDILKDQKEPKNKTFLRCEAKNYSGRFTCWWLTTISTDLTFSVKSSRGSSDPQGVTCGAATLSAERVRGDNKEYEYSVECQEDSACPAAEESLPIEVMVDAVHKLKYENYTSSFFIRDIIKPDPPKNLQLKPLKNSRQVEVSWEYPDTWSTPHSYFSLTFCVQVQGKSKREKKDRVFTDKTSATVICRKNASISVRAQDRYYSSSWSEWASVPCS
IL-10 receptor (hIL-10Rα and hIL-10Rβ) (human), sequence (Q13651 22-578, chain 1 of 2): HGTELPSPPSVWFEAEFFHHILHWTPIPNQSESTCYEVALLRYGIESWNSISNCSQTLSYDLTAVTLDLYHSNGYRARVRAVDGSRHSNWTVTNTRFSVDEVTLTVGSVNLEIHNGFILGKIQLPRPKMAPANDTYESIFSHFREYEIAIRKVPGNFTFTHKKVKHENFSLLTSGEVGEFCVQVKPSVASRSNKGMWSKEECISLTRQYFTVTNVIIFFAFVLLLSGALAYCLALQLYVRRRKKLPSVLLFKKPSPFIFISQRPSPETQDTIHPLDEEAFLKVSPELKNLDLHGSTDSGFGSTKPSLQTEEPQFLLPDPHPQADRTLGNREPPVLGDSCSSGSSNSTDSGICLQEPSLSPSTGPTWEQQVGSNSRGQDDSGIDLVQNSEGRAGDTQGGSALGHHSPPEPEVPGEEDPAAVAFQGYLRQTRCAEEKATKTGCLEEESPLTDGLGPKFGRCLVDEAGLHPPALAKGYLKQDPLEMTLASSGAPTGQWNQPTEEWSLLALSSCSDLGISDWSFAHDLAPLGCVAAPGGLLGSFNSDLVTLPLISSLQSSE
IL-10 receptor (hIL-10Rα and hIL-10Rβ) (human), sequence (Q08334 20-325, chain 2 of 2, further chain): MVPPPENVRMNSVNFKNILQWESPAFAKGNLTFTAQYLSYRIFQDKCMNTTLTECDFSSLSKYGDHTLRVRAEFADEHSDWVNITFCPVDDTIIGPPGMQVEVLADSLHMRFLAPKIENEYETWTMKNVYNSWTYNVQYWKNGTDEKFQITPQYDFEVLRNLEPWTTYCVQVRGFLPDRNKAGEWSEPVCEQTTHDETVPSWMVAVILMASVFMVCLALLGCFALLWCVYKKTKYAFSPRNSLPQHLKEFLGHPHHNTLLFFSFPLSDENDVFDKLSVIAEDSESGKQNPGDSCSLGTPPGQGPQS
recombinant human IL-23 (free state), sequence (Q9NPF7 20-189 limits assumed): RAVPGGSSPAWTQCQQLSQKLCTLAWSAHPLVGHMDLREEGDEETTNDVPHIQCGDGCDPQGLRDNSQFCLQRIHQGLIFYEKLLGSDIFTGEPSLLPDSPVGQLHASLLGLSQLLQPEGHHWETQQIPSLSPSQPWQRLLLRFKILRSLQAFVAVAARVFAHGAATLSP
recombinant human IL-23 (free state), sequence (P29460 23-328 limits assumed): as the sequence (P29460 23-328 limits assumed) above

IFN-γ signal transduction, HEK-IFN-γ [1]: 100%
IFN-γ signal transduction, HEK-IFN-γ cells, % of rIFN-γ [1]: 100%
IFN-γ signal transduction, HEK-IFN-γ-PD-1 [1]: 100%
IFN-γ signal transduction, HEK-IFN-γ-TIGIT [1]: 100%
IFN-γ signal transduction, HEK-PD-1-IFN-γ cells, % of rIFN-γ [1]: 100%
Substance: recombinant human IFN-γ (free state) (from UniProt P01579 24-166) (ligand)

IL-10 signal transduction, HEK-IL-10 cells, % of rIL-10 [2]: 100%
IL-10 signal transduction, HEK-PD-1-IL-10 cells, % of rIL-10 [2]: 100%
Substance: recombinant human IL-10 (free state) (from UniProt P22301 19-178) (ligand)

IFN-γ release, activated PBMC [3]: 2300 ng/mL
IL-12 signal transduction, HEK IL-12 [3]: 100%
IL-12 signal transduction, HEK-IL-12 [3]: 100%
IL-12 signal transduction, HEK-IL-12-PD-1 [3]: 100%
IL-12 signal transduction, HEK-IL-12-PD-1 (high) [3]: 100%
IL-12 signal transduction, HEK-IL-12-PD-1 (low) [3]: 100%
IL-12 signal transduction, HEK-IL-12-TIGIT [3]: 100%
IL-12 signal transduction, HEK-IL-12 cells, % of rIL-12 [3]: 100%
IL-12 signal transduction, HEK-PD-1-IL-12 [3]: 100%
IL-12 signal transduction, HEK-PD-1-IL-12 cells, % of rIL-12 [3]: 100%
Substance: recombinant human IL-12 (from UniProt P29459 23-219; P29460 23-328) (ligand)

IL-23 signal transduction, HEK-IL-23 cells, % of rIL-23 [4]: 100%
IL-23 signal transduction, HEK-PD-1-IL-23 cells, % of rIL-23 [4]: 100%
Substance: recombinant human IL-23 (free state) (from UniProt Q9NPF7 20-189; P29460 23-328) (ligand)
